The results in this text go back to the supplement of paper PMC10567573.

± gives the standard deviation.

The nature of this series: protein stability index of a GFP-peptide fusion (GPS, HEK-293T) (PSI 1-6); higher = more stable.
Where [1] appears, read: treatment: DMSO, c terminus: a fixed tail appended.
Where [2] appears, read: treatment: MLN4924 1 uM, 8 h, c terminus: a fixed tail appended.
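Note: 24-mer peptide tiles fused after GFP, lentivirally expressed, FACS-sorted into six equal bins by GFP/DsRed ratio, decoded by Illumina sequencing, PSI is the read-weighted mean bin number.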

The sequence SRNFGVRNQGNFSVVGTVLAATQA [ZC2HC1C] yielded a protein stability index under setting [1] of 2.96 ± 0.19 and a protein stability index under setting [2] of 3.16 ± 0.12.
In the case of SRVAHIERTRKPYNNDIDYYAKRN [GALNT9], the protein stability index stood at 3.77 ± 0.37 under setting [1] and 3.91 ± 0.33 under setting [2].
Taken in the same sequence, the figures for SSETPIEGKNMSFVNDLTVTQDGR [APMAP] were 4.96 ± 0.34 and 4.87 ± 0.25.
For SSFIKTEPSSPASLTDSVNHHSPG [ESRRG], the protein stability index under setting [1] is 4.79 ± 0.17 and the protein stability index under setting [2] came to 4.9 ± 0.18.
Turning to SSFTWSVPSSGYGAVTASKHSNSP [SMTNL2], the protein stability index runs as follows: under setting [1], 3.82 ± 0.26; under setting [2], 3.87 ± 0.095.
SSGRSCRNERSIQEKLQVLMAEGL [SMG5] had a protein stability index under setting [1] of 2.64 ± 0.39 and a protein stability index under setting [2] of 2.88 ± 0.12.
As for SSRVPVGGGPEATLSISDVRTLSE [ZBTB22], the protein stability index reads like this: under setting [1], 4.49 ± 0.11; under setting [2], 4.57 ± 0.38.
As for SSSQEIPTMPQPIEKVSVSTQTKK [ZMYND11], the protein stability index stood at 5.33 ± 0.42 under setting [1] and 5.37 ± 0.23 under setting [2].
For the sequence SSSSGRLSEPDPSHTLEERVVHWY [SMOC2], the protein stability index is, setting by setting: under setting [1], 3.14 ± 0.38; under setting [2], 3.1 ± 0.22.
Regarding STETLVHVSDEDNNADLCLTDDKQ [DLC1], the protein stability index reads like this: under setting [1], 5.59 ± 0.36; under setting [2], 5.59 ± 0.38.
With STFHTISPSFQLKAAALPPFPLGA [PLAGL1], the protein stability index is 2.48 ± 0.46 under setting [1] and 2.64 ± 0.16 under setting [2].
Sequence STFRTPAVLFTGIVALYIASGLTG [ATL3] yielded a protein stability index under setting [1] of 3.09 ± 0.38 and a protein stability index under setting [2] of 3.19 ± 0.24.
In the case of STGEAGTDGDHNVYPRPPEPREFS [ZC2HC1C], the protein stability index under setting [1] came to 5.03 ± 0.19 and the protein stability index under setting [2] turned out to be 5.03 ± 0.16.
On to STKAIPEKYGAVREVILKELAEAT [ZBED1], for which the protein stability index came out at 3.88 ± 0.32 under setting [1] and 4.08 ± 0.35 under setting [2].
Regarding STPSDNIVRRFLNICENTEGAIAV [CDC14A], the protein stability index was determined as 3.66 ± 0.39 under setting [1] and 3.66 ± 0.14 under setting [2].
Regarding SVCSCTCYRSQDYGGRSVAPQNSF [KCNK9], the protein stability index is, setting by setting: under setting [1], 2.44 ± 0.23; under setting [2], 2.64 ± 0.43.
Consider SVVRRCVKVLAGQEYAAKIINTKK [CAMK2A], for which the protein stability index runs as follows: under setting [1], 2.72 ± 0.35; under setting [2], 2.52 ± 0.5.
SWEVVTSMGTQRCDAGVCVLREK [KLHL12]: the protein stability index came out at 2.89 ± 0.46 (treatment: DMSO, c terminus: native) and 3.17 ± 0.41 (treatment: MLN4924 1 uM, 8 h, c terminus: native).
For SWSDNERSSSRINIPERASGPEGN [FAM104B], the protein stability index is, setting by setting: under setting [1], 4.79 ± 0.11; under setting [2], 4.73 ± 0.32.
For SYLREQMLNEPLVREIVKECSNIP [GAN], in that order: 3.21 ± 0.19 and 3.39 ± 0.45.
As for SYNACGVLSHIMFDGPEAWGVCEP [ZER1], the protein stability index was 2.13 ± 0.45 under setting [1] and 2.44 ± 0.41 under setting [2].
Turning to TALALEPDAIRSRSNTLRERSQVR [PCDHGC5], the protein stability index by setting is: under setting [1], 4.64 ± 0.14; under setting [2], 4.69 ± 0.18.
As to TCCESTQRSVSDVASGSTPAPALC [IRX6], the protein stability index runs as follows: under setting [1], 4.48 ± 0.067; under setting [2], 4.51 ± 0.11.
For the sequence TCSECGKGFIQKGNLNIHQRTHTG [ZNF649], the protein stability index by setting is: under setting [1], 3.24 ± 0.2; under setting [2], 3.26 ± 0.25.
Turning to TCVNLLLEASNYQMMPYMQPVMQS [KLHL13], the protein stability index under setting [1] is 3.06 ± 0.41 and the protein stability index under setting [2] worked out at 2.98 ± 0.36.
Taken in the same sequence, the figures for TDIELEIYGMEGIPEKDMDERRRL [ZNF207] were 4.77 ± 0.097 and 4.86 ± 0.22.
Taken in the same sequence, the figures for TDRSHIYTFTDTFTEKLWPLFYPG [TRIM39] were 2.16 ± 0.47 and 2.15 ± 0.56.
With TEKTTTVLSESSGPSNTSHSSSRD [C2CD2L], the protein stability index by setting is: under setting [1], 5.42 ± 0.15; under setting [2], 5.31 ± 0.25.
With TEPEQRELKTKLTKLEAEIVTLRH [TPD52L3], the protein stability index was 4.23 ± 0.15 under setting [1] and 4.35 ± 0.26 under setting [2].
Taken in the same sequence, the figures for TEQSSASRLMRRHKRRRRKQKVSR [DVL3] were 5.13 ± 0.24 and 5.16 ± 0.22.
Take TFFPVALKKHGPICQKTATKKRKT [ZC2HC1A]: the protein stability index reads like this: under setting [1], 3.24 ± 0.3; under setting [2], 3.32 ± 0.3.
TFHEGKHNISHMSMDIARGLMVTC [WDFY1]: the protein stability index by setting is: under setting [1], 2.49 ± 0.63; under setting [2], 2.04 ± 0.14.
As to THFNTAQGFRTVLELVINYQQLCI [OAS1], the protein stability index is 3.26 ± 0.87 under setting [1] and 2.76 ± 0.37 under setting [2].
In the case of THSPQKSHQCAHCEKTFNRKDHLK [PLAGL1], the protein stability index is, setting by setting: under setting [1], 3.97 ± 0.16; under setting [2], 4.05 ± 0.28.
For TINPLWHIRHLGWNPDARYSEHFL [GLT8D2], in that order: 2.39 ± 0.22 and 2.32 ± 0.24.
On to TITTAAATSVTVPGAGVPSGSGGT [ZBTB22], for which the protein stability index was 4.9 ± 0.19 under setting [1] and 4.85 ± 0.26 under setting [2].
As for TIYGLHALEQGGLRAATMSAVEAA [PYCR3], the protein stability index was 2.85 ± 0.65 under setting [1] and 3.22 ± 0.8 under setting [2].
Turning to TKEKKHQCDHCERCFYTRKDVRRH [PLAGL1], the protein stability index was determined as 3.69 ± 0.48 under setting [1] and 4.2 ± 0.5 under setting [2].
For the sequence TLEFENVQVLTMGNDTSPSEGTNL [HNF4A], the protein stability index runs as follows: under setting [1], 4.69 ± 0.18; under setting [2], 4.52 ± 0.39.
For TLLGNPKKRMRYFDPLRNEYFFDR [KCNA1], in that order: 2.27 ± 0.29 and 2.3 ± 0.057.
As to TLLPASLFVNSHPGIDRPGMLCSF [DCAF4], the protein stability index came to 2.31 ± 0.36 under setting [1] and 2.2 ± 0.22 under setting [2].
For TLNSIWNVEDHINPKLPNISLDVL [POMT2], the protein stability index is, setting by setting: under setting [1], 2.31 ± 0.092; under setting [2], 2.48 ± 0.17.
Regarding TNEWEKRLSTSPVRLAARQEDAPM [EPB41L3], the protein stability index is 4.83 ± 0.16 under setting [1] and 4.51 ± 0.44 under setting [2].
TNHGYRVQVENPERFSSAPCLLGS [TRIM35]: the protein stability index turned out to be 3.4 ± 0.17 under setting [1] and 3.29 ± 0.31 under setting [2].
Take TPIPWLSSGEPVDYNVDIGIPLDG [MYOZ1]: the protein stability index by setting is: under setting [1], 3.98 ± 0.19; under setting [2], 4.07 ± 0.2.
For TPLQQVSIEEILEEQRVEQQTKLE [LSM1], the protein stability index was 5.37 ± 0.17 under setting [1] and 5.34 ± 0.29 under setting [2].
On to TPSPADAKAPPTACYAGAAPAPSQ [CEBPB], for which the protein stability index reads like this: under setting [1], 4.75 ± 0.38; under setting [2], 4.75 ± 0.27.
The sequence TRFILSKVPSEAPSPMPTHRSYLG [SLC6A17] displayed a protein stability index under setting [1] of 2.73 ± 0.31 and a protein stability index under setting [2] of 2.64 ± 0.26.
As for TRLSRLQEKEELRELNDRLAVYID [LMNB1], the protein stability index is, setting by setting: under setting [1], 3.42 ± 0.25; under setting [2], 3.5 ± 0.28.
For TRQLHEKTSQLSYYYMGFYIHSCP [ATE1], in that order: 2.83 ± 0.71 and 2.54 ± 0.41.
For TRVLAEMREQYEAMAERNRRDAEE [KRT13], the protein stability index is, setting by setting: under setting [1], 5.26 ± 0.2; under setting [2], 5.18 ± 0.28.
Regarding TSSLFRTEPMAWNETADLGLDIGA [CTNNB1], the protein stability index is, setting by setting: under setting [1], 3.71 ± 0.24; under setting [2], 3.82 ± 0.59.
With TTVPEVEPPQDSHSRKTVLIKTIE [PRPH], the protein stability index under setting [1] is 4.58 ± 0.3 and the protein stability index under setting [2] is 4.6 ± 0.38.
Regarding TVHEVDIFRCFCPVFLHSQMLWEL [DENND6A], the protein stability index reads like this: under setting [1], 2.89 ± 0.61; under setting [2], 3.33 ± 0.49.
For TVPDEFTVEERQTGMWWRHLVAGG [SLC25A25], in that order: 2.77 ± 0.19 and 3 ± 0.14.
Taken in the same sequence, the figures for TWRDPQDEVPGSQGSQASQAPPVP [NR2F2] were 5.18 ± 0.19 and 5.16 ± 0.23.
The sequence TWVTVKNGSGDMIFEGNSEKEIPV [CPXM2] yielded a protein stability index under setting [1] of 4 ± 0.2 and a protein stability index under setting [2] of 3.9 ± 0.081.
As for TYNLTEVDKYVNSFVLKNFPALLS [KLHL13], the protein stability index came to 2.08 ± 0.26 under setting [1] and 2.28 ± 0.23 under setting [2].
As for VAEETPDGAPALCPSPEALSPEPP [PRKX], the protein stability index runs as follows: under setting [1], 5.48 ± 0.21; under setting [2], 5.41 ± 0.31.
VAFLEQRASALLASCSKNCTNSPA [FBXO34] registered a protein stability index under setting [1] of 2.9 ± 0.25 and a protein stability index under setting [2] of 2.76 ± 0.28.
VAITILQDDHDHKVQELMSTHELE [MTUS2]: the protein stability index runs as follows: under setting [1], 3.3 ± 0.3; under setting [2], 3.43 ± 0.23.
For VAPQDQCKLTCQAQALGYYYVLEP [ADAMTS4], in that order: 2.58 ± 0.22 and 2.4 ± 0.04.
For VASEMRFVQDLVRALEQEKLQGVE [DAPK3], in that order: 4.42 ± 0.44 and 4.73 ± 0.37.
With VASGSTPAPALCCAPYDSRLLGSA [IRX6], the protein stability index amounted to 2.64 ± 0.21 under setting [1] and 2.99 ± 0.13 under setting [2].
On to VASVGNSRPTGQQLESLGLLAPGE [KISS1], for which the protein stability index runs as follows: under setting [1], 4.44 ± 0.17; under setting [2], 4.52 ± 0.3.
Consider VAVLLLFLVVREPPRGAVERHSDL [SPNS1], for which the protein stability index reads like this: under setting [1], 3.02 ± 0.64; under setting [2], 2.99 ± 0.53.
As to VCCCELGVNPDQVEKIRKLPNTLL [ANKRD40], the protein stability index by setting is: under setting [1], 2.26 ± 0.36; under setting [2], 2.82 ± 0.32.
As to VCVFLSHGEGNHIYAYDAKIEIQT [CASP6], the protein stability index by setting is: under setting [1], 3.11 ± 0.26; under setting [2], 2.75 ± 0.64.
As for VEALQLSARWLEVLRTYLELVLCV [FBXO33], the protein stability index is, setting by setting: under setting [1], 2.58 ± 0.35; under setting [2], 2.46 ± 0.73.
Take VEDLVDSLKLALLFYILTFVGAIF [RTN2]: the protein stability index is, setting by setting: under setting [1], 2.8 ± 0.35; under setting [2], 2.48 ± 0.55.
As to VEPPGPGDTVVQGDLQETTVVTGL [PBXIP1], the protein stability index under setting [1] is 5.31 ± 0.4 and the protein stability index under setting [2] came out at 5.15 ± 0.46.
On to VESFKTKVSYLKQKGLGGAMVWAL [CHIT1], for which the protein stability index by setting is: under setting [1], 2.54 ± 0.49; under setting [2], 2.7 ± 0.56.
